Patent US20240192215A1 (E AND S HEALTHCARE, published 2024)

Tests used:
Assay in all cases: peptide microarray, anti-mouse IgG DyLight 650, MMC2 heatmap (Example 17)
Peptide_011 = molecular target: T1, Peptide_011
T1 peptide: HHHHHHHHVKQIESK
Experimental: (§1) 5, 1, 0.2, 0.04, 0.008 and 0.0016 μg/mL serial dilutions were incubated on a single multi-well microarray slide at 30° C. for 1 hour. The slide includes 21 individual mini-arrays (one mini-array per sample dilution).
(§2) DyLight 650 was used as a label. False-positive binding to a peptide was evaluated by performing one additional control incubation in which only a secondary antibody was applied on the same microarray slide. Before performing each step, the microarrays were washed with a washing buffer.
(§3) To visualize the obtained results and compare binding regions across individual cultures, as shown in FIGS. 21A to 21D, heatmap diagrams were calculated. In FIGS. 21A to 21D, the fluorescence intensity is expressed in a color-coded manner, white indicates no binding, and red indicates strong binding. For all evaluations, the MMC2-value of the average pixel fluorescence for each peptide was calculated.

Peptide_016 = molecular target: T2, Peptide_016
T2 peptide: HHHVKQIESKTAFQE
Experimental: as §1, §2, §3

Peptide_029 = molecular target: T3, Peptide_029
T3 peptide: QEALDAAGDKLVVVD
Experimental: as §1, §2, §3

Peptide_030 = molecular target: T4, Peptide_030
T4 peptide: EALDAAGDKLVVVDF
Experimental: as §1, §2, §3

Peptide_032 = molecular target: T5, Peptide_032
T5 peptide: LDAAGDKLVVVDFSA
Experimental: as §1, §2, §3

Peptide_035 = molecular target: T6, Peptide_035
T6 peptide: AGDKLVVVDFSATWC
Experimental: as §1, §2, §3

Peptide_038 = molecular target: T7, Peptide_038
T7 peptide: KLVVVDFSATWCGPC
Experimental: as §1, §2, §3

Peptide_039 = molecular target: T8, Peptide_039
T8 peptide: LVVVDFSATWCGPCK
Experimental: as §1, §2, §3

Peptide_040 = molecular target: T9, Peptide_040
T9 peptide: VVVDFSATWCGPCKM
Experimental: as §1, §2, §3

Peptide_042 = molecular target: T10, Peptide_042
T10 peptide: VDFSATWCGPCKMIK
Experimental: as §1, §2, §3

Peptide_043 = molecular target: T11, Peptide_043
T11 peptide: DFSATWCGPCKMIKP
Experimental: as §1, §2, §3

Peptide_059 = molecular target: T12, Peptide_059
T12 peptide: FHSLSEKYSNVIFLE
Experimental: as §1, §2, §3

Peptide_063 = molecular target: T13, Peptide_063
T13 peptide: SEKYSNVIFLEVDVD
Experimental: as §1, §2, §3

Peptide_064 = molecular target: T14, Peptide_064
T14 peptide: EKYSNVIFLEVDVDD
Experimental: as §1, §2, §3

Peptide_065 = molecular target: T15, Peptide_065
T15 peptide: KYSNVIFLEVDVDDC
Experimental: as §1, §2, §3

Peptide_070 = molecular target: T16, Peptide_070
T16 peptide: IFLEVDVDDCQDVAS
Experimental: as §1, §2, §3

Peptide_072 = molecular target: T17, Peptide_072
T17 peptide: LEVDVDDCQDVASEC
Experimental: as §1, §2, §3

Peptide_073 = molecular target: T18, Peptide_073
T18 construct: also called EVDVDDCQDVASECE
T18 peptide: EVDVDDCQDVASECE
Experimental: as §1, §2, §3

Peptide_077 = molecular target: T19, Peptide_077
T19 peptide: DDCQDVASECEVKCM
Experimental: as §1, §2, §3

Peptide_078 = molecular target: T20, Peptide_078
T20 peptide: DCQDVASECEVKCMP
Experimental: as §1, §2, §3

Peptide_083 = molecular target: T21, Peptide_083
T21 peptide: ASECEVKCMPTFQFF
Experimental: as §1, §2, §3

Peptide_087 = molecular target: T22, Peptide_087
T22 peptide: EVKCMPTFQFFKKGQ
Experimental: as §1, §2, §3

Peptide_089 = molecular target: T23, Peptide_089
T23 peptide: KCMPTFQFFKKGQKV
Experimental: as §1, §2, §3

Peptide_090 = molecular target: T24, Peptide_090
T24 peptide: CMPTFQFFKKGQKVG
Experimental: as §1, §2, §3

Peptide_099 = molecular target: T25, Peptide_099
T25 peptide: KGQKVGEFSGANKEK
Experimental: as §1, §2, §3

Peptide_104 = molecular target: T26, Peptide_104
T26 peptide: GEFSGANKEKLEATI
Experimental: as §1, §2, §3

Peptide_006 = molecular target: T27, Peptide_006
T27 peptide: DVHSQHHHHHHHHVK
Experimental: as §1, §2, §3

Peptide_004 = molecular target: T28, Peptide_004 (human)
T28 construct: 15-mer on microarray; not native form, recombinant insert region
T28 peptide: AADVHSQHHHHHHHH
Experimental: as §1, §2, §3

binding result (Peptide_011): no binding (tested: 5 ug/mL)
binding result (Peptide_016): binds
binding result (Peptide_029): no binding (tested: 5 ug/mL)
binding result (Peptide_030): no binding (tested: 5 ug/mL)
binding result (Peptide_032): no binding (tested: 5 ug/mL)
binding result (Peptide_035): no binding (tested: 5 ug/mL)
binding result (Peptide_038): binds
binding result (Peptide_039): binds
binding result (Peptide_040): no binding (tested: 5 ug/mL)
binding result (Peptide_042): no binding (tested: 5 ug/mL)
binding result (Peptide_043): no binding (tested: 5 ug/mL)
binding result (Peptide_059): no binding (tested: 5 ug/mL)
binding result (Peptide_063): no binding (tested: 5 ug/mL)
binding result (Peptide_064): no binding (tested: 5 ug/mL)
binding result (Peptide_065): no binding (tested: 5 ug/mL)
binding result (Peptide_070): no binding (tested: 5 ug/mL)
binding result (Peptide_072): no binding (tested: 5 ug/mL)
binding result (Peptide_073): no binding (tested: 5 ug/mL)
binding result (Peptide_077): no binding (tested: 5 ug/mL)
binding result (Peptide_078): no binding (tested: 5 ug/mL)
binding result (Peptide_083): no binding (tested: 5 ug/mL)
binding result (Peptide_087): no binding (tested: 5 ug/mL)
binding result (Peptide_089): no binding (tested: 5 ug/mL)
binding result (Peptide_090): no binding (tested: 5 ug/mL)
binding result (Peptide_099): no binding (tested: 5 ug/mL)
binding result (Peptide_104): no binding (tested: 5 ug/mL)
binding result (Peptide_006): binds
binding result (Peptide_004): no binding (tested: 5 ug/mL)
B1: monoclonal antibody B264 (antibody, mouse IgG1, kappa, V domains shown)
VH: QVQLQQSGAELARPGASVKMSCKASGYTFTSYTMHWVKQRPGQGLEWIGYINPTSDYTNYNQKFKDKATLTADKSSSTAYMQLSSLTSEDSAVYFCASEGGFLYYFDYWGQGTTLTVSS
VL: DVLMTQTPLSLPVSLGDQASISCRSSQSIVHSNGNTYLEWYLQKPGQSPKLLIYKVSNRFSGVPDRFSGSGSGTDFTLKISRVEAEDLGVYYCFQGSHVPYTFGGGTKLEIKR
notes: also called AB264; B264 (Trx1-mIgG1)
